This note sets out measurements from patent US12281155 (INSTITUT PASTEUR, dated 2025).

Substitutions are numbered along the chain they refer to.

Sequences and labels used below:
B1: SPK002M A3 antibody (antibody, human IgG1, kappa, V domains shown)
VH: EVQLVESGGGLIQPGGSLRLSCAASTITVTSNYMSWVRQAPGKGLEWVSVIYPGGSTFYADSVKGRFTISADNSKNTLYLQMNSLRAEDTAVYYCARDLVVYGMDVWGQGTTVTVSS
VL: EIVLTQSPGTLSLSPGERATLSCRASQSVSSSYLAWYQQKPGQAPRLLIYGASSRATGIPGRFSGSGSGTDFTLTISRLEPEDFAVYYCQQGVTFGGGTKVEIKR
B2: SPK002M C3 antibody (antibody, human IgG1, kappa, V domains shown)
VH: B1 VH with T26I, A71T
VL: B1 VL
B3: SPK002M A5 antibody (antibody, human IgG1, kappa, V domains shown)
VH: B1 VH with T26V
VL: B1 VL with V86I
B4: SPK002M B1 antibody (antibody, human IgG1, kappa, V domains shown)
VH: B1 VH with T26I, A71Y
VL: B1 VL with S31D, V86I, Q91Y
B5: SPK002M C2 antibody (antibody, human IgG1, kappa, V domains shown)
VH: B1 VH with T26I, I51A, A71T
VL: B1 VL
B6: SPK002M A4 antibody (antibody, human IgG1, kappa, V domains shown)
VH: B1 VH with T26V
VL: B1 VL
B7: SPK002M C1 antibody (antibody, human IgG1, kappa, V domains shown)
VH: B1 VH with T26I, I51A, A71T
VL: B1 VL with S31D, Q91Y
B8: SPK002M A2 antibody (antibody, human IgG1, kappa, V domains shown)
VH: B1 VH
VL: B1 VL with S28G
B9: SPK002M A1 antibody (antibody, human IgG1, kappa, V domains shown)
VH: B1 VH
VL: B1 VL with S28G, V29F
B10: SPK002M B2 antibody (antibody, human IgG1, kappa, V domains shown)
VH: B1 VH with T26I, A71Y
VL: B1 VL with V86I
B11: SPK002M A6 antibody (antibody, human IgG1, kappa, V domains shown)
VH: B1 VH with T26G
VL: B1 VL with V86I

The first assay addresses T1, recombinant SARS-CoV-2 Spike RBD domain, Wuhan (SARS-CoV-2).
T1 construct: also called RBD Wuhan
The assay can be described thus: ELISA on coated RBD. Background: In an ELISA, binding on a coated surface is turned into a signal by an enzyme label.
Regarding B1, the “Binding AUC” value amounted to 33.
On the same count and under the same terms, next, B2: 34.
Same read-out and setting: next, B3: 34.
Still for that read-out and setting: the figure for B4 is 31; for B5 it is 32.
With B6, the “Binding AUC” value came to 34.
Still for that read-out and setting: the figure for B7 is 32; for B8 it is 33.
Take B9: the “Binding AUC” value was found to be 33.
B10: the “Binding AUC” value came to 31.

The target of a further assay is T1, recombinant SARS-CoV-2 Spike RBD …. The assay is described as follows: competition ELISA, blocking of RBD binding to ACE2 ectodomain.
As for B1, the Blocking % stood at 94%.
As for B2, the Blocking % was 88%.
On the same count and under the same terms, the figure for B3 is 89%; for B4 it is 87%.
Still for that read-out and setting: next, B5: 88%; B6: 88%; B7: 94%.
Same read-out and setting: next, B8: 92%; B9: 92%; B10: 90%.

In a further assay the target is T2, YU2 HIV-1 Env gp140 protein (HIV-1 YU2, UniProt P35961 32-670).
T2 construct: domain: gp140; also called gp140 (HIV-1 YU2); HIV gp140
The assay can be described thus: polyreactivity ELISA (FIG. 1).
B1: the binding result is listed as “no binding (tested: 4 µg/ml)”.
On the same count and under the same terms, the entry for B2 is “no binding (tested: 4 µg/ml)”.
Take B3: the binding result is reported as “no binding (tested: 4 µg/ml)”.
Consider B4, for which the binding result was “no binding (tested: 4 µg/ml)”.
With B5, the binding result is “no binding (tested: 4 µg/ml)”.
The same measure, in the same setting: next, B6: “no binding (tested: 4 µg/ml)”.
Same read-out and setting: the entry for B7 is “no binding (tested: 4 µg/ml)”; for B8 it is “no binding (tested: 4 µg/ml)”.
On to B9, for which the binding result is “no binding (tested: 4 µg/ml)”.
Same read-out and setting: the entry for B11 is “no binding (tested: 4 µg/ml)”; for B10 it is “no binding (tested: 4 µg/ml)”.
